Data reported in the supplement of paper PMC10065799, “High-throughput profiling of sequence recognition by tyrosine kinases and SH2 domains using bacterial peptide display” (eLife, 2023).

Experiments:
AncSZ = test: phosphorylation enrichment, bacterial display (enrichment ratio); higher = better substrate or ligand; peptides without Tyr show the background
EPHB1 = EPHB1 (UniProt P54762); test: as above
EPHB2 = EPHB2 (UniProt P29323); test: as above
FGFR1 = FGFR1 (UniProt P11362); test: as above
FGFR3 = FGFR3 (UniProt P22607); test: as above
Chain of FGFR3 (P22607 whole entry, looked up): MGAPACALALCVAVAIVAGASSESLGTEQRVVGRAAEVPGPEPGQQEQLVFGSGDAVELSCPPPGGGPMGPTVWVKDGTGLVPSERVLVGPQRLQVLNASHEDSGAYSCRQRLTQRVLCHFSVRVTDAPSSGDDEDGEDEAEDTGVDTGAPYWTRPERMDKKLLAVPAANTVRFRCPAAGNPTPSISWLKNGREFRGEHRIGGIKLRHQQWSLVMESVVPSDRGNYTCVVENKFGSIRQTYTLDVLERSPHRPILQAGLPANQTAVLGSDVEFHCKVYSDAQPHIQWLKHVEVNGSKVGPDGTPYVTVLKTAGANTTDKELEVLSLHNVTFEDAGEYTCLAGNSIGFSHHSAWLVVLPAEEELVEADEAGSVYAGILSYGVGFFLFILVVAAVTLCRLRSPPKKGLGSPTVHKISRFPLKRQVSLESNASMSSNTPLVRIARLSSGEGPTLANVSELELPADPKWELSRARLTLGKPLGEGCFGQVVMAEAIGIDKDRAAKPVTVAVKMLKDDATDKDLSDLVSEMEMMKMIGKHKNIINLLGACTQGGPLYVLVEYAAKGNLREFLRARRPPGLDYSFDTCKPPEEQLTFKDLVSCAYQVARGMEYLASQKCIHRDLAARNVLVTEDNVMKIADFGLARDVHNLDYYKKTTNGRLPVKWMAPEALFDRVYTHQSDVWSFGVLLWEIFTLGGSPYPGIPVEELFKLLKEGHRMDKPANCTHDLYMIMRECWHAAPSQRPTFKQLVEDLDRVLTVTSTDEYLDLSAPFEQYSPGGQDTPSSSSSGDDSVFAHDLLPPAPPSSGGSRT

Fer (mouse) = test: as above
Fes = Fes (UniProt P07332); test: as above
Chain of Fes (P07332 whole entry, looked up): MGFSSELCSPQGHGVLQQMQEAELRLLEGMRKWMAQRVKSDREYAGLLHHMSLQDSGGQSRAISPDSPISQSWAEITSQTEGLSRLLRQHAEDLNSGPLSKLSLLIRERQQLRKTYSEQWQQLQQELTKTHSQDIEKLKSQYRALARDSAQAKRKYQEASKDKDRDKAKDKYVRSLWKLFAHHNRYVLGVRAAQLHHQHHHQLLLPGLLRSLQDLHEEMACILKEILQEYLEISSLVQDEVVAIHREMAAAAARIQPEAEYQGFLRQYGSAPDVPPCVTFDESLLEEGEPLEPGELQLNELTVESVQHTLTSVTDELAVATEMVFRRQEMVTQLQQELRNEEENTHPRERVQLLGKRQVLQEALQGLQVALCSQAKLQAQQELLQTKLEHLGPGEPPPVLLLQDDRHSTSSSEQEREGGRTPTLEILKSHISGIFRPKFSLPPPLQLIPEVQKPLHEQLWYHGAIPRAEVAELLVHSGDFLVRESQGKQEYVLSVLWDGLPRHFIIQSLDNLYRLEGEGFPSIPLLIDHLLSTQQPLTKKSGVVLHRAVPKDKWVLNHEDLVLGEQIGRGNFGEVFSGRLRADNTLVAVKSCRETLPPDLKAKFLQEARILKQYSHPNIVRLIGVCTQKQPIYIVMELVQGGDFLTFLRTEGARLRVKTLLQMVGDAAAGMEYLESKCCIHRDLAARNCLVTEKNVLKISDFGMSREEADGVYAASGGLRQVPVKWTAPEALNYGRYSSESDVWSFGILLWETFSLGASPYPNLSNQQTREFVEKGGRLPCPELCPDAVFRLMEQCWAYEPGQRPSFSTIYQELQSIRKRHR

Fyn = Fyn (UniProt P06241); test: as above
Chain of Fyn (P06241 whole entry, looked up): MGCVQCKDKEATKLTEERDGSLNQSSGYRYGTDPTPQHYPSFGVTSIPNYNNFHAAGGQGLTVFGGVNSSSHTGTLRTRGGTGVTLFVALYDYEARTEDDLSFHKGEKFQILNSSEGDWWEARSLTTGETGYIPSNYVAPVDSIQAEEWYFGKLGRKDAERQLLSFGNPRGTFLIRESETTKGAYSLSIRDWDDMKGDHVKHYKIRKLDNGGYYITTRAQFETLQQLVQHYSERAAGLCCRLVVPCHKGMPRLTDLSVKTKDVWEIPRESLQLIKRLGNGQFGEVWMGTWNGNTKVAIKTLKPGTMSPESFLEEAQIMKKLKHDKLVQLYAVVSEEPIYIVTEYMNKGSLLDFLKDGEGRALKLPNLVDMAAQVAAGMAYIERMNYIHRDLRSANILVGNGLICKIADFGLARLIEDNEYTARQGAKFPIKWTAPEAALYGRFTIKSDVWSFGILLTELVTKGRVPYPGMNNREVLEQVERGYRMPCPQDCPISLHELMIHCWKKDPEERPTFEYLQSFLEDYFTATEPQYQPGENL

Hck = Hck (UniProt P08631); test: as above
Chain of Hck (P08631 whole entry, looked up): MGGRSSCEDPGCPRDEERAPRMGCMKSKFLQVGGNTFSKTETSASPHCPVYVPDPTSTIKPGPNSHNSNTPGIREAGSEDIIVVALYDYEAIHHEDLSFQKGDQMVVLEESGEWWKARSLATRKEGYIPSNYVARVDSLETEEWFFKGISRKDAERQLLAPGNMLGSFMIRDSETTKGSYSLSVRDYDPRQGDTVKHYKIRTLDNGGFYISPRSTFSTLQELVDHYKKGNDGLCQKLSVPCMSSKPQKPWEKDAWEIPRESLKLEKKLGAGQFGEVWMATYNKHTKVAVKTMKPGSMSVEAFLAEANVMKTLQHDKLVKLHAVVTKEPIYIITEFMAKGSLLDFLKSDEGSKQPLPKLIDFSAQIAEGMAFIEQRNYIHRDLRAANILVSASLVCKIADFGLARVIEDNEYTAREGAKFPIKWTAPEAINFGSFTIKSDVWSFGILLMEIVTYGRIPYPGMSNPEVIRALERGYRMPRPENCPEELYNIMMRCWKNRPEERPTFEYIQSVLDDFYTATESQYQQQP

Jak2 = Jak2 (UniProt O60674); test: as above
MERTK = MERTK (UniProt Q12866); test: as above
Chain of MERTK (Q12866 whole entry, looked up): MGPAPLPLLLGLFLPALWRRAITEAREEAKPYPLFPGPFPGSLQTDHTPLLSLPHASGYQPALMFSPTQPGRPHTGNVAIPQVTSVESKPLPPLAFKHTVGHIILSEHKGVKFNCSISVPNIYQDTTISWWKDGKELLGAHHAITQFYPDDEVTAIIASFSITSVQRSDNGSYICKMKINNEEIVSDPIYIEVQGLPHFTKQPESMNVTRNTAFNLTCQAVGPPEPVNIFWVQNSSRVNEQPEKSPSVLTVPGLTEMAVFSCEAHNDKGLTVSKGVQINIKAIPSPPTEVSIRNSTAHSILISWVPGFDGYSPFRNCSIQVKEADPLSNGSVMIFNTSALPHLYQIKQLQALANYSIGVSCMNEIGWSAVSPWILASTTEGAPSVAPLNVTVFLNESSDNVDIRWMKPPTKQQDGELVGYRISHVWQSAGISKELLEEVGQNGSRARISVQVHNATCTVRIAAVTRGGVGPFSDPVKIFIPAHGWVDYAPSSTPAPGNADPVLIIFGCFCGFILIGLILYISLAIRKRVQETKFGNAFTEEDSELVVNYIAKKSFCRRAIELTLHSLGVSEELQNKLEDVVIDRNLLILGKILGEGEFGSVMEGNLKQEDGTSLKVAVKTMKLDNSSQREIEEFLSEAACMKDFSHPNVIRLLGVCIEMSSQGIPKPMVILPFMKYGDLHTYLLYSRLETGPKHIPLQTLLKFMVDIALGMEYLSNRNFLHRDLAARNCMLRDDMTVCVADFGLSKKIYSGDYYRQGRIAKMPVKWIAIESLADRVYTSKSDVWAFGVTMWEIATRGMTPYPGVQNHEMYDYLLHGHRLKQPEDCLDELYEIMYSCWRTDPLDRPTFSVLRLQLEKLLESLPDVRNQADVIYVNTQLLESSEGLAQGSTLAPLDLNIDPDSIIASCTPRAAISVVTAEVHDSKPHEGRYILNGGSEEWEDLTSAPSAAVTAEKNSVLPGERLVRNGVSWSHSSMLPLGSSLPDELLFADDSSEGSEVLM

c-Abl (mouse) = test: as above
c-Src = test: as above
Grb2 SH2 = Grb2 SH2 (UniProt P62993); test: SH2 binding enrichment of the phosphorylated peptide, bacterial display (enrichment ratio); higher = better substrate or ligand; peptides without Tyr show the background
Chain of Grb2 SH2 (P62993 whole entry, looked up): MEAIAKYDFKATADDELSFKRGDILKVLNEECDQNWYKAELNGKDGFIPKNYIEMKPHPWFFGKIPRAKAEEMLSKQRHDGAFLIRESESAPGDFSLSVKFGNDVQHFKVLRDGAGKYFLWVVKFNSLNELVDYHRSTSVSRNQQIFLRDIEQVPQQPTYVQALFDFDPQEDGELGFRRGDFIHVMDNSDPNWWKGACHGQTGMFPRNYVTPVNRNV

SHP2-C SH2 = test: as above
c-Src SH2 = test: as above
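For SH2 binding enrichment of the phosphorylated peptide, bacterial display in this document: peptide library displayed on the E. coli surface as eCPX fusions, selected cells deep-sequenced, score is each peptide's frequency after selection divided by its frequency in the input.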
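For phosphorylation enrichment, bacterial display in this document: 11-residue human phosphosite peptides and single-mutation variants displayed on the E. coli surface, counted by deep sequencing, each peptide's frequency after selection divided by its frequency in the unselected input library; frequency after pTyr selection over input frequency; kinase dosed for 20-30% of maximal phosphorylation in three min.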

Chain of EPHB2 (P29323 whole entry, looked up): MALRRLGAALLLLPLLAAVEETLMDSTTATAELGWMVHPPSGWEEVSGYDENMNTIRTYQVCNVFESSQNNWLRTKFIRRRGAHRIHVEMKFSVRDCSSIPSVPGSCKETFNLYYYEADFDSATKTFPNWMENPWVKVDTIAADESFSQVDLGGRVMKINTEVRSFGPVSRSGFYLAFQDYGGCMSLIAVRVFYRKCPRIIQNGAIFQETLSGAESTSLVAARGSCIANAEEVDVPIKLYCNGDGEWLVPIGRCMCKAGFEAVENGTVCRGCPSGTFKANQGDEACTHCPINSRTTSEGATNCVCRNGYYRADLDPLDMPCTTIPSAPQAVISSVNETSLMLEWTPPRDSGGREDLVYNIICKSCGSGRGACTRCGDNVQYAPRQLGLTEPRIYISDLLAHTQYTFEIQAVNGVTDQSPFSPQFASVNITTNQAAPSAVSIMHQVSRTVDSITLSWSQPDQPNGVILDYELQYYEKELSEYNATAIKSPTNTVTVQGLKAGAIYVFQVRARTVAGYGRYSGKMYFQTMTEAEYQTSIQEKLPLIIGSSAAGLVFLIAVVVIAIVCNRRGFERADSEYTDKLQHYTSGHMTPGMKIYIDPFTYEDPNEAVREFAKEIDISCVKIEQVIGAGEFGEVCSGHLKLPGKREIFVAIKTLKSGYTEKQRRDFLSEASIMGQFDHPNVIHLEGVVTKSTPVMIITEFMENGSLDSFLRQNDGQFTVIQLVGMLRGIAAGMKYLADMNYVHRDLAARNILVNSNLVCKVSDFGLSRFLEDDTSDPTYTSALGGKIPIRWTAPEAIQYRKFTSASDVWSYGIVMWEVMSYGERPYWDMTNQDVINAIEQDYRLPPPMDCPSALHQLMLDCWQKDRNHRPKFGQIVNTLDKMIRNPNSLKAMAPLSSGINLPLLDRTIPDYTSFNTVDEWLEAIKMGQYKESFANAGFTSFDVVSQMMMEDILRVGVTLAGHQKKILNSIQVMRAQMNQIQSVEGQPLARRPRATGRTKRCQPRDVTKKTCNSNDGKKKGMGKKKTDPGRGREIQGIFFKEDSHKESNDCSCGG

Row | Sequence | phosphorylation enrichment (AncSZ) | phosphorylation enrichment (EPHB1) | phosphorylation enrichment (EPHB2) | phosphorylation enrichment (FGFR1) | phosphorylation enrichment (FGFR3) | phosphorylation enrichment (Fer (mouse)) | phosphorylation enrichment (Fes) | phosphorylation enrichment (Fyn) | phosphorylation enrichment (Hck) | phosphorylation enrichment (Jak2) | phosphorylation enrichment (MERTK) | phosphorylation enrichment (c-Abl (mouse)) | phosphorylation enrichment (c-Src) | SH2 binding enrichment (Grb2 SH2) | SH2 binding enrichment (SHP2-C SH2) | SH2 binding enrichment (c-Src SH2)
1 | GRTNICKNKKD [SLC26A3_Y520_Y520C] | 0.631 | 0.462 | 0.447 | 0.471 | 0.911 | 0.448 | 0.973 | 0.331 | 0.482 | 1.16 | 0.366 | 1.39 | 0.437 | 1.79 | 1.4 | 1.43
2 | GRVLGYGAFRK [FLT4_Y853_G857R] | 0.634 | 0.44 | 0.432 | 0.477 | 0.495 | 0.406 | 0.586 | 0.517 | 0.486 | 0.539 | 0.482 | 0.644 | 0.52 | 0.671 | 0.733 | 0.549
3 | GSERRYTREGG [PTPRN2_Y139_S140T] | 0.448 | 0.345 | 0.347 | 0.458 | 0.407 | 0.351 | 0.583 | 0.319 | 0.415 | 0.463 | 0.382 | 0.489 | 0.482 | 0.777 | 0.563 | 0.485
4 | GSIQQYTFKQE [PRG4_Y1271_I1272T_YF] | 0.703 | 0.484 | 0.451 | 0.369 | 0.573 | 0.427 | 0.785 | 0.345 | 0.347 | 0.641 | 0.322 | 0.728 | 0.356 | 0.829 | 0.937 | 0.53
5 | GSRGKYFSGFR [ATM_Y332_S333F] | 0.547 | 0.425 | 0.399 | 0.415 | 0.412 | 0.325 | 0.736 | 0.386 | 0.351 | 0.885 | 0.481 | 0.657 | 0.616 | 0.963 | 0.833 | 0.544
6 | GVLKEYGEKVL [CPS1_Y529_V531E] | 0.742 | 0.42 | 0.474 | 0.419 | 0.466 | 0.405 | 0.719 | 0.425 | 0.422 | 0.573 | 0.415 | 0.648 | 0.396 | 0.921 | 0.767 | 0.427
7 | GVMLLYYGRYN [ADGRD1_Y85_T82M] | 1.53 | 0.616 | 0.761 | 0.556 | 0.6 | 0.515 | 1.24 | 1.24 | 1.21 | 1.34 | 0.416 | 0.594 | 2.23 | 1.17 | 0.921 | 0.96
8 | GVRLFYRVRES [RB1_Y454_M457R_YF] | 1.25 | 0.471 | 0.529 | 0.513 | 0.65 | 0.461 | 1.16 | 0.417 | 0.375 | 1.05 | 0.383 | 0.976 | 0.349 | 0.705 | 0.578 | 0.476
9 | GVTLLYFGRDN [ADGRD1_Y85_Y89D_YF] | 0.887 | 0.633 | 0.424 | 0.488 | 0.737 | 0.481 | 1.04 | 0.353 | 0.516 | 0.937 | 0.321 | 0.643 | 0.398 | 1.63 | 1.19 | 1.16
10 | GVYSRHFTTYD [CLCA1_Y661_Y661H] | 0.823 | 0.495 | 0.473 | 0.389 | 0.508 | 0.642 | 0.657 | 0.648 | 1.31 | 0.507 | 0.569 | 0.359 | 0.768 | 0.713 | 0.714 | 0.477
11 | GYDHSYYFIAT [ESD_Y262] | 2.05 | 1.95 | 1.24 | 11.1 | 9.89 | 1.1 | 1.22 | 1.41 | 2.02 | 6.79 | 4.8 | 0.759 | 1.57 | 0.702 | 0.727 | 0.871
12 | GYYDLYGGEKF [PTPN11_Y66_D61G] | 1.3 | 3.27 | 9.35 | 10.9 | 8.65 | 3.13 | 0.931 | 7.27 | 6.7 | 3.15 | 6.61 | 0.68 | 4.54 | 0.939 | 0.778 | 3.86
13 | HAEERYGKELV [PSTPIP1_Y53_Q48H] | 1.26 | 0.881 | 0.806 | 1.09 | 1.02 | 0.732 | 1.26 | 0.614 | 1.02 | 1.06 | 0.382 | 0.688 | 0.569 | 0.755 | 0.7 | 0.362
14 | HAVFVYDICHV [TWNK_Y508_YF] | 1.88 | 1.49 | 1.36 | 0.631 | 1.05 | 3.38 | 2.02 | 4.27 | 2.8 | 1.65 | 2.62 | 1.47 | 4.61 | 0.895 | 1.27 | 0.531
15 | HEVHIYENSGA [ARPC1B_Y35_K37N] | 1.44 | 1.38 | 1.28 | 0.703 | 0.892 | 1.26 | 2.27 | 1.04 | 1.62 | 1.31 | 0.826 | 1.32 | 0.865 | 12.4 | 1.03 | 6.64
16 | HFVDEYDQTIE [KRAS_Y32_P34Q] | 2.79 | 1.1 | 1.07 | 0.93 | 0.852 | 0.667 | 2.04 | 0.897 | 0.835 | 2.14 | 0.804 | 1.01 | 0.935 | 0.973 | 0.62 | 0.592
17 | HGEAYYSEVKP [PAK5_Y182] | 2.68 | 2.27 | 1.8 | 3.13 | 1.93 | 11.2 | 1.62 | 1.96 | 3.85 | 1.7 | 11.2 | 1.79 | 2.99 | 0.769 | 0.795 | 2.44

Row | Sequence | phosphorylation enrichment (AncSZ) | phosphorylation enrichment (EPHB1) | phosphorylation enrichment (EPHB2) | phosphorylation enrichment (FGFR1) | phosphorylation enrichment (FGFR3) | phosphorylation enrichment (Fer (mouse)) | phosphorylation enrichment (Fes) | phosphorylation enrichment (Fyn) | phosphorylation enrichment (Hck) | phosphorylation enrichment (Jak2) | phosphorylation enrichment (MERTK) | phosphorylation enrichment (c-Abl (mouse)) | phosphorylation enrichment (c-Src) | SH2 binding enrichment (Grb2 SH2) | SH2 binding enrichment (SHP2-C SH2) | SH2 binding enrichment (c-Src SH2)
18 | HHIDYYKETTN [FGFR1_Y654_K656E] | 1.13 | 1.03 | 0.814 | 1.09 | 0.935 | 0.893 | 1.39 | 0.646 | 0.799 | 0.979 | 0.866 | 0.878 | 0.997 | 0.985 | 0.996 | 1.47
19 | HIAKGYRRDNP [HARS1_Y156_V155G] | 0.731 | 0.363 | 0.429 | 0.33 | 0.326 | 0.438 | 0.539 | 0.427 | 0.572 | 0.409 | 0.399 | 0.543 | 0.451 | 0.456 | 0.43 | 0.213
20 | HICTAYKLVLA [DHCR24_Y190_E191K] | 1.88 | 1.49 | 1.53 | 2.66 | 2.2 | 1.52 | 2.86 | 1.3 | 1.47 | 1.88 | 0.832 | 0.969 | 1.34 | 0.867 | 0.56 | 0.45
21 | HISGVYKLPPD [ANGPTL7_Y145_R140H] | 1.79 | 0.556 | 0.6 | 0.585 | 0.67 | 0.618 | 1.33 | 3.26 | 0.718 | 1 | 0.725 | 0.697 | 2.3 | 0.957 | 0.925 | 0.459
22 | HKANEYYPVVL [ADAMTS18_Y764] | 2.86 | 1.47 | 1.45 | 23.2 | 15.7 | 2.6 | 1.22 | 0.956 | 1.95 | 9.18 | 1.13 | 2.49 | 1.65 | 0.902 | 0.907 | 0.985
23 | HKNNNYEPSLF [BRCA2_Y57_N60S] | 1.13 | 0.689 | 0.766 | 0.793 | 0.891 | 0.791 | 1 | 0.652 | 0.563 | 0.897 | 0.654 | 0.659 | 0.658 | 0.931 | 0.72 | 0.866
24 | HMEAVYIDIAD [PITPNA_Y140_V136M] | 3.91 | 9.76 | 5.08 | 13.6 | 10.2 | 8.49 | 2.85 | 3.86 | 2.85 | 2.26 | 1.43 | 1.06 | 3.62 | 1.23 | 0.847 | 0.696
25 | HNGVSYYINLC [IGF2R_Y2024] | 1.43 | 0.805 | 0.541 | 0.605 | 1.1 | 0.577 | 1.5 | 0.581 | 0.597 | 1.35 | 0.513 | 1.15 | 0.419 | 1.14 | 1 | 0.431
26 | HNLDYYKETTN [FGFR3_Y648_K650E] | 1.25 | 0.633 | 0.857 | 2.08 | 2.12 | 0.766 | 1.06 | 0.597 | 0.734 | 1.01 | 0.553 | 0.788 | 0.47 | 1.24 | 0.874 | 0.732
27 | HNLNYYKKTTN [FGFR3_Y648_D646N] | 0.791 | 0.337 | 0.361 | 0.468 | 0.531 | 0.461 | 0.507 | 0.491 | 0.258 | 0.648 | 0.479 | 0.554 | 0.429 | 0.738 | 0.683 | 0.479
28 | HPAGNYSLSSV [ARFGAP3_Y473_Q468H] | 0.49 | 0.706 | 0.58 | 0.562 | 0.458 | 0.619 | 0.666 | 0.409 | 0.553 | 0.672 | 0.625 | 0.867 | 0.425 | 0.804 | 0.79 | 0.603
29 | HRDSSYFWEIE [RAF1_Y340_Q335H_YF] | 1.34 | 0.59 | 0.629 | 1.02 | 0.984 | 0.497 | 1.8 | 0.579 | 0.638 | 2.02 | 0.628 | 1.13 | 0.888 | 0.856 | 0.52 | 0.802
30 | HRGFLYLAIEF [TEK_Y899_Y897F_YF] | 1.49 | 0.765 | 0.539 | 0.515 | 1.02 | 0.968 | 1.67 | 0.352 | 0.627 | 1.7 | 0.711 | 1.52 | 0.687 | 1.13 | 0.819 | 0.556
31 | HSPLRYTSILT [OR51B6_Y130_R125H] | 0.915 | 0.782 | 0.602 | 1.19 | 0.849 | 0.892 | 1.4 | 0.823 | 0.683 | 0.807 | 0.634 | 0.547 | 0.574 | 1.21 | 9.46 | 5.39
32 | HSVLNYGVCVC [JAK2_Y613_L609S] | 0.91 | 0.87 | 0.905 | 0.674 | 0.84 | 0.692 | 1.57 | 0.564 | 0.62 | 1.17 | 0.482 | 0.925 | 0.595 | 0.853 | 0.929 | 0.584
33 | HTLQLYRCREE [ALPK3_Y342] | 0.953 | 0.499 | 0.588 | 0.898 | 0.7 | 0.575 | 1.03 | 0.573 | 0.522 | 0.574 | 0.607 | 0.329 | 0.603 | 0.672 | 0.658 | 0.406
